# Experimental data: IntAct's records for PubMed 35512704
# B1: Speckle-type POZ protein (Homo sapiens), O43791 (parent)
# chain: MSRVPSPPPPAEMSSGPVAESWCYTQIKVVKFSYMWTINNFSFCREEMGEVIKSSTFSSGANDKLKWCLRVNPKGLDEESKDYLSLYLLLVSCPKSEVRAKFKFSILNAKGEETKAMESQRAYRFVQGKDWGFKKFIRRDFLLDEANGLLPDDKLTLFCEVSVVQDSVNISGQNTMNMVKVPECRLADELGGLWENSRFTDCCLCVAGQEFQAHKAILAARSPVFSAMFEHEMEESKKNRVEINDVEPEVFKEMMCFIYTGKAPNLDKMADDLLAAADKYALERLKVMCEDALCSNLSVENAAEILILADLHSADQLKTQAVDFINYHASDVLETSGWKSMVVSHPHLVAEAYRSLASAQCPFLGPPRKRLKQS
# Variants of: B1
# Conditions: with cdk6_human CDK6, Q00534
row,Variant,effect of a mutation on the interaction
1,F133V,with no effect

# Variants of: B1
# Conditions: with cdn2c_human CDKN2C
row,Variant,effect of a mutation on the interaction
1,F133V,with no effect

# Variants of: B1
# Conditions: with chd1l_human CHD1L
row,Variant,effect of a mutation on the interaction
1,F133V,with no effect

# Variants of: B1
# Conditions: with chd2_human CHD2, O14647
row,Variant,effect of a mutation on the interaction
1,F133V,with no effect

# Variants of: B1
# Conditions: with ch3l1_human CHI3L1, P36222
row,Variant,effect of a mutation on the interaction
1,F133V,with no effect

# Variants of: B1
# Conditions: with cul3_human CUL3, Q13618
row,Variant,effect of a mutation on the interaction
1,F133V,with no effect

# Variants of: B1
# Conditions: with cul4b_human CUL4B
row,Variant,effect of a mutation on the interaction
1,F133V,with no effect

# Variants of: B1
# Conditions: with daxx_human DAXX
row,Variant,effect of a mutation on the interaction
1,F133V,with no effect

# Variants of: B1
# Conditions: with ddx5_human DDX5, P17844
row,Variant,effect of a mutation on the interaction
1,F133V,with no effect

# Variants of: B1
# Conditions: with dll3_human DLL3, Q9NYJ7
row,Variant,effect of a mutation on the interaction
1,F133V,with no effect

# Variants of: B1
# Conditions: with duox2_human DUOX2, Q9NRD8
row,Variant,effect of a mutation on the interaction
1,F133V,with no effect

# Variants of: B1
# Conditions: with e2f2_human E2F2, Q14209
row,Variant,effect of a mutation on the interaction
1,F133V,with no effect

# Variants of: B1
# Conditions: with e2f3_human E2F3, O00716
row,Variant,effect of a mutation on the interaction
1,F133V,with no effect

# Variants of: B1
# Conditions: with e2f5_human E2F5, Q15329
# Chain of e2f5_human E2F5, Q15329 (Q15329 whole entry): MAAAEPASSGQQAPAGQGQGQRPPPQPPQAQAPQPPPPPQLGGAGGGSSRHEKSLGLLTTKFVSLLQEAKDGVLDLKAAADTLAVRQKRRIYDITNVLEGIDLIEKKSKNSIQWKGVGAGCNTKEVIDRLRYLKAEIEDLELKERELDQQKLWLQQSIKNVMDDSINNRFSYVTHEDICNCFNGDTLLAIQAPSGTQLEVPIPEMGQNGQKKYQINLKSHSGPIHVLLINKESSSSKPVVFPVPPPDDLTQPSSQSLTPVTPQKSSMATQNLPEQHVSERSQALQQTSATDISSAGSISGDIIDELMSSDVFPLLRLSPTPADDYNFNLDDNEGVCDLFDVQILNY
row,Variant,effect of a mutation on the interaction
1,F133V,with no effect

# Variants of: B1
# Conditions: with e2f6_human E2F6, O75461
row,Variant,effect of a mutation on the interaction
1,F133V,with no effect

# Variants of: B1
# Conditions: with e2f8_human E2F8, A0AVK6
row,Variant,effect of a mutation on the interaction
1,F133V,with no effect

# Variants of: B1
# Conditions: with if4e_human EIF4E
row,Variant,effect of a mutation on the interaction
1,F133V,with no effect

# Variants of: B1
# Conditions: with epha7_human EPHA7, Q15375
# Chain of epha7_human EPHA7, Q15375 (Q15375 whole entry, looked up): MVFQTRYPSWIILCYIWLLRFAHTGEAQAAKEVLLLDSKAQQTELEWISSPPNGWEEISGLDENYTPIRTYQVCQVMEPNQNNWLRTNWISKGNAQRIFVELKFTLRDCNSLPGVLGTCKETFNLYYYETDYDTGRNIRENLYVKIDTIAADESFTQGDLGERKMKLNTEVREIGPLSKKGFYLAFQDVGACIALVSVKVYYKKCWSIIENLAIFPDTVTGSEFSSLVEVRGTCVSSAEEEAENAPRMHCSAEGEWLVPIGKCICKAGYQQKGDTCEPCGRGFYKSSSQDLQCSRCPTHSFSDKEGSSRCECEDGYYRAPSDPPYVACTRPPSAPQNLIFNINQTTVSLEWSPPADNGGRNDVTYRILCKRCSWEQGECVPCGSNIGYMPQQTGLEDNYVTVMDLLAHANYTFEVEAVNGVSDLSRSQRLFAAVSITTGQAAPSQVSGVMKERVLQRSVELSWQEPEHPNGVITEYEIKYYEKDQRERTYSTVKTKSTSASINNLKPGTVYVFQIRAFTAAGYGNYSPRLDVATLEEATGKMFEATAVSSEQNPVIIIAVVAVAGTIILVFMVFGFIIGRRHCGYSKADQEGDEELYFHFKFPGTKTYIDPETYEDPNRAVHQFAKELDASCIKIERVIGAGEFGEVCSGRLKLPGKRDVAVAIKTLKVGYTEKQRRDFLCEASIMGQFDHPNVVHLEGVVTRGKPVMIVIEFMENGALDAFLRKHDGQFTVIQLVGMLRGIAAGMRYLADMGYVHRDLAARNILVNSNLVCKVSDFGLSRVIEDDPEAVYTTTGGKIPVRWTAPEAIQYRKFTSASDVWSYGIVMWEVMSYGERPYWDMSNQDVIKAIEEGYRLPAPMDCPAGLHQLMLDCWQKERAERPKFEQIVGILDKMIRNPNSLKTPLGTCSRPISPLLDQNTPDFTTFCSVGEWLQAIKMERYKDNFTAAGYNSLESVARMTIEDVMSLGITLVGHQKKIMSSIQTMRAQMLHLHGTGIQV
row,Variant,effect of a mutation on the interaction
1,F133V,with no effect

# Variants of: B1
# Conditions: with ephb1_human EPHB1, P54762
row,Variant,effect of a mutation on the interaction
1,F133V,with no effect

# Variants of: B1
# Conditions: with erbb3_human ERBB3, P21860
row,Variant,effect of a mutation on the interaction
1,F133V,with no effect

# Variants of: B1
# Conditions: with erbb4_human ERBB4, Q15303
row,Variant,effect of a mutation on the interaction
1,F133V,with no effect

# Variants of: B1
# Conditions: with esr1_human ESR1, P03372
# Chain of esr1_human ESR1, P03372 (P03372 whole entry): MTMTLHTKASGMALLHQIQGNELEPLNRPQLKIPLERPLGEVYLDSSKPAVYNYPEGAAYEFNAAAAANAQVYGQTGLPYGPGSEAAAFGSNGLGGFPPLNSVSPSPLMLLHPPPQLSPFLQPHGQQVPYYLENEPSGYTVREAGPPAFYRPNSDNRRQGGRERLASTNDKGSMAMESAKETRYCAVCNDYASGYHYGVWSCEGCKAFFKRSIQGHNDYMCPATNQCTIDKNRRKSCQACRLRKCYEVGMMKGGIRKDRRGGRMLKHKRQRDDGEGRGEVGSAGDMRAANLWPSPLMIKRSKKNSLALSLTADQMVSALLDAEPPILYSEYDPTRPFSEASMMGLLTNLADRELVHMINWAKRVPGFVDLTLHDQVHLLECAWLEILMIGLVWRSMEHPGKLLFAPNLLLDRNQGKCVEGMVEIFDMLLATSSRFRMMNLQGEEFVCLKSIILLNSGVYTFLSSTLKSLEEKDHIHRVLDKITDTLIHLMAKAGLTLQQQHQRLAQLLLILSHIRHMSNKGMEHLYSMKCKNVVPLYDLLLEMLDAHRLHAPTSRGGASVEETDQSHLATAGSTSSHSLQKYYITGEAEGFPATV
row,Variant,effect of a mutation on the interaction
1,F133V,with no effect

# Variants of: B1
# Conditions: with etv1_human ETV1, P50549
row,Variant,effect of a mutation on the interaction
1,F133V,with no effect

# Variants of: B1
# Conditions: with ezh1_human EZH1, Q92800
# Chain of ezh1_human EZH1, Q92800 (Q92800 whole entry): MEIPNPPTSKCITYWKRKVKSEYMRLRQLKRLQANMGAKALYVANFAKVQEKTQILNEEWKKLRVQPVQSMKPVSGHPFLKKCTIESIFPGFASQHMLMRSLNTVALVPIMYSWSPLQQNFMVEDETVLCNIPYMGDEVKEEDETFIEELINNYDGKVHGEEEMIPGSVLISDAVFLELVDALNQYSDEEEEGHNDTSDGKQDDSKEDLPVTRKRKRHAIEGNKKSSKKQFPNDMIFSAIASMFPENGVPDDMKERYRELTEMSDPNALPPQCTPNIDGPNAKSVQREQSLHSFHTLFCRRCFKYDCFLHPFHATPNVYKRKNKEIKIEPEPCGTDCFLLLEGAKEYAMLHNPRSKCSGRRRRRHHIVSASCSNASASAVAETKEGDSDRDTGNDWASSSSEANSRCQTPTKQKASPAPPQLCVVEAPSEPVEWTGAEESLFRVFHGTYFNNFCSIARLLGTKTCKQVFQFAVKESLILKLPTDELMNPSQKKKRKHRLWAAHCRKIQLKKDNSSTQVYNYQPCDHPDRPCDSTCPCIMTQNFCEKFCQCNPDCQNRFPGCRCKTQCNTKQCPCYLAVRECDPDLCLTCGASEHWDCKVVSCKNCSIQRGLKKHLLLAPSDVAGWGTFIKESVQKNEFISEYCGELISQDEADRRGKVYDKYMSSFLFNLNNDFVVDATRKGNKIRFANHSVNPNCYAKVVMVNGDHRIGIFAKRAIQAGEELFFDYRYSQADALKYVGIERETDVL
row,Variant,effect of a mutation on the interaction
1,F133V,with no effect

# Variants of: B1
# Conditions: with ezh2_human EZH2, Q15910
row,Variant,effect of a mutation on the interaction
1,F133V,with no effect

# Variants of: B1
# Conditions: with facd2_human FANCD2, Q9BXW9
row,Variant,effect of a mutation on the interaction
1,F133V,with no effect

# Variants of: B1
# Conditions: with fgf19_human FGF19, O95750
row,Variant,effect of a mutation on the interaction
1,F133V,with no effect

# Variants of: B1
# Conditions: with fgfp1_human FGFBP1, Q14512
row,Variant,effect of a mutation on the interaction
1,F133V,with no effect

# Variants of: B1
# Conditions: with fgfr4_human FGFR4, P22455
row,Variant,effect of a mutation on the interaction
1,F133V,with no effect

# Variants of: B1
# Conditions: with fumh_human FH
row,Variant,effect of a mutation on the interaction
1,F133V,with no effect

# Variants of: B1
# Conditions: with gbra6_human GABRA6, Q16445
row,Variant,effect of a mutation on the interaction
1,F133V,with no effect

# Variants of: B1
# Conditions: with gata1_human GATA1, P15976
row,Variant,effect of a mutation on the interaction
1,F133V,with no effect

# Variants of: B1
# Conditions: with p66b_human GATAD2B
row,Variant,effect of a mutation on the interaction
1,F133V,with no effect

# Variants of: B1
# Conditions: with gna11_human GNA11, P29992
row,Variant,effect of a mutation on the interaction
1,F133V,with no effect

# Variants of: B1
# Conditions: with gna13_human GNA13, Q14344
row,Variant,effect of a mutation on the interaction
1,F133V,with no effect

# Variants of: B1
# Conditions: with gnaq_human GNAQ
row,Variant,effect of a mutation on the interaction
1,F133V,with no effect

# Variants of: B1
# Conditions: with grm1_human GRM1, Q13255
row,Variant,effect of a mutation on the interaction
1,F133V,with no effect

# Variants of: B1
# Conditions: with grm3_human GRM3, Q14832
row,Variant,effect of a mutation on the interaction
1,F133V,with no effect

# Variants of: B1
# Conditions: with gtpb4_human GTPBP4, Q9BZE4
row,Variant,effect of a mutation on the interaction
1,F133V,with no effect

# Variants of: B1
# Conditions: with h33_human H3-3A
row,Variant,effect of a mutation on the interaction
1,F133V,with no effect

# Variants of: B1
# Conditions: with hdac1_human HDAC1, Q13547
row,Variant,effect of a mutation on the interaction
1,F133V,with no effect

# Variants of: B1
# Conditions: with hdac3_human HDAC3, O15379
row,Variant,effect of a mutation on the interaction
1,F133V,with no effect

# Variants of: B1
# Conditions: with hgf_human HGF
row,Variant,effect of a mutation on the interaction
1,F133V,with no effect

# Variants of: B1
# Conditions: with h31_human H3C1, P68431
row,Variant,effect of a mutation on the interaction
1,F133V,with no effect

# Variants of: B1
# Conditions: with hlab_human HLA-B
row,Variant,effect of a mutation on the interaction
1,F133V,with no effect

# Variants of: B1
# Conditions: with hnf1a_human HNF1A
row,Variant,effect of a mutation on the interaction
1,F133V,with no effect

# Variants of: B1
# Conditions: with igf1r_human IGF1R
row,Variant,effect of a mutation on the interaction
1,F133V,with no effect

# Variants of: B1
# Conditions: with il7ra_human IL7R
row,Variant,effect of a mutation on the interaction
1,F133V,with no effect

# Variants of: B1
# Conditions: with int12_human INTS12, Q96CB8
row,Variant,effect of a mutation on the interaction
1,F133V,with no effect

# Variants of: B1
# Conditions: with ist1_human IST1, P53990
row,Variant,effect of a mutation on the interaction
1,F133V,with no effect

# Variants of: B1
# Conditions: with jak1_human JAK1, P23458
# Chain of jak1_human JAK1, P23458 (P23458 whole entry): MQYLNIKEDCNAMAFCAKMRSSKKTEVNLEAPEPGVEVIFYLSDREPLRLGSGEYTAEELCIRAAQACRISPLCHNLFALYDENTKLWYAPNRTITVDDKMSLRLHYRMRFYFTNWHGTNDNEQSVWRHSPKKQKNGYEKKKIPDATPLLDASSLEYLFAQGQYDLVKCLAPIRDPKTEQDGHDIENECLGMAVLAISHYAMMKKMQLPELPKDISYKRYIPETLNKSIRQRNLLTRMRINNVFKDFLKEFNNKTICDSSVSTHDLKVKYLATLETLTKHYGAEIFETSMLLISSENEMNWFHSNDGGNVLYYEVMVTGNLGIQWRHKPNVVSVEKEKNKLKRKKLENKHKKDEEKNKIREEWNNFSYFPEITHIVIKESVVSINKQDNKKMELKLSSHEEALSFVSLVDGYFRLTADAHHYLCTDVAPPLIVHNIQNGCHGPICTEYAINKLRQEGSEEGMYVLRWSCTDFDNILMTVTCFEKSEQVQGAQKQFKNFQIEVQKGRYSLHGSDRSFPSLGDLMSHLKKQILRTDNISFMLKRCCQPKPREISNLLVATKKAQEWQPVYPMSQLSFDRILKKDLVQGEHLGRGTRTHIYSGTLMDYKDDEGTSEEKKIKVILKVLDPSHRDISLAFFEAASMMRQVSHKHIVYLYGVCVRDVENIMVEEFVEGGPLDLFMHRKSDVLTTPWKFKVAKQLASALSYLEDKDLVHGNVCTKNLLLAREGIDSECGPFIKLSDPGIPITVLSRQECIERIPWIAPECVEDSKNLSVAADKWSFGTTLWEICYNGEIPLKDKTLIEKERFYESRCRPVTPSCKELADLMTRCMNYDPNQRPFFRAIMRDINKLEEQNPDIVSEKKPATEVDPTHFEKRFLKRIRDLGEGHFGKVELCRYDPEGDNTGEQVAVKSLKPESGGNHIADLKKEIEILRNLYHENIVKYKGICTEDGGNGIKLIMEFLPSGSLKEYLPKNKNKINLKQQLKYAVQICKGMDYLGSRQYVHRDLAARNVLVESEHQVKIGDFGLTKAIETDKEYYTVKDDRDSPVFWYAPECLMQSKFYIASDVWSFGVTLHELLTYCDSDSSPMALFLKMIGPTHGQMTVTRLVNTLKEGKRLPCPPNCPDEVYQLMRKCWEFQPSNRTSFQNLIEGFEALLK
row,Variant,effect of a mutation on the interaction
1,F133V,with no effect

# Variants of: B1
# Conditions: with jak3_human JAK3, P52333
row,Variant,effect of a mutation on the interaction
1,F133V,with no effect

# Variants of: B1
# Conditions: with kat2a_human KAT2A
row,Variant,effect of a mutation on the interaction
1,F133V,with no effect

# Variants of: B1
# Conditions: with kdm5a_human KDM5A
row,Variant,effect of a mutation on the interaction
1,F133V,with no effect

# Variants of: B1
# Conditions: with kdm5c_human KDM5C
row,Variant,effect of a mutation on the interaction
1,F133V,with no effect

# Variants of: B1
# Conditions: with vgfr2_human KDR
row,Variant,effect of a mutation on the interaction
1,F133V,with no effect

# Variants of: B1
# Conditions: with lims1_human LIMS1, P48059
row,Variant,effect of a mutation on the interaction
1,F133V,with no effect

# Variants of: B1
# Conditions: with maga6_human MAGEA6, P43360
# Chain of maga6_human MAGEA6, P43360 (P43360 whole entry): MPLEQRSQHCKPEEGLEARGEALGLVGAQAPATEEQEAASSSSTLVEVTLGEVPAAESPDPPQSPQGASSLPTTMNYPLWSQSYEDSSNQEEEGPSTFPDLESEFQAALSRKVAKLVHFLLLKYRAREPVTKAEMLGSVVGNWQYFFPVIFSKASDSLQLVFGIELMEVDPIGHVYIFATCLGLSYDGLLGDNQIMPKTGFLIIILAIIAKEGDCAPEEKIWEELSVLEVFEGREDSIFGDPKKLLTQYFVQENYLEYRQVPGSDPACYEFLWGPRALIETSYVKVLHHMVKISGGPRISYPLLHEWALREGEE
row,Variant,effect of a mutation on the interaction
1,F133V,with no effect

# Variants of: B1
# Conditions: with m3k1_human MAP3K1, Q13233
row,Variant,effect of a mutation on the interaction
1,F133V,with no effect

# Variants of: B1
# Conditions: with mk10_human MAPK10, P53779
row,Variant,effect of a mutation on the interaction
1,F133V,with no effect

# Variants of: B1
# Conditions: with mk14_human MAPK14, Q16539
# Chain of mk14_human MAPK14, Q16539 (Q16539 whole entry): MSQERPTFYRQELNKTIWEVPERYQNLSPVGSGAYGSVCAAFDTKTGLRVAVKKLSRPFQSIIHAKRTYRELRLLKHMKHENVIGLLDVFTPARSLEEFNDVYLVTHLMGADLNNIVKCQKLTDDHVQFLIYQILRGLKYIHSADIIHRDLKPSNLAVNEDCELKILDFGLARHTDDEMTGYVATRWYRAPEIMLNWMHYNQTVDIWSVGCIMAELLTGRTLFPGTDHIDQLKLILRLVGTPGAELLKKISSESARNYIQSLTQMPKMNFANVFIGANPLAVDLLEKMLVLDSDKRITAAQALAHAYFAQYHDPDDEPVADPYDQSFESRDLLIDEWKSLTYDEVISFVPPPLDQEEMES
row,Variant,effect of a mutation on the interaction
1,F133V,with no effect

# Variants of: B1
# Conditions: with mk03_human MAPK3, P27361
row,Variant,effect of a mutation on the interaction
1,F133V,with no effect

# Variants of: B1
# Conditions: with mk04_human MAPK4, P31152
row,Variant,effect of a mutation on the interaction
1,F133V,with no effect

# Variants of: B1
# Conditions: with mk06_human MAPK6, Q16659
row,Variant,effect of a mutation on the interaction
1,F133V,with no effect

# Variants of: B1
# Conditions: with sin1_human MAPKAP1, Q9BPZ7
# Chain of sin1_human MAPKAP1, Q9BPZ7 (Q9BPZ7 whole entry): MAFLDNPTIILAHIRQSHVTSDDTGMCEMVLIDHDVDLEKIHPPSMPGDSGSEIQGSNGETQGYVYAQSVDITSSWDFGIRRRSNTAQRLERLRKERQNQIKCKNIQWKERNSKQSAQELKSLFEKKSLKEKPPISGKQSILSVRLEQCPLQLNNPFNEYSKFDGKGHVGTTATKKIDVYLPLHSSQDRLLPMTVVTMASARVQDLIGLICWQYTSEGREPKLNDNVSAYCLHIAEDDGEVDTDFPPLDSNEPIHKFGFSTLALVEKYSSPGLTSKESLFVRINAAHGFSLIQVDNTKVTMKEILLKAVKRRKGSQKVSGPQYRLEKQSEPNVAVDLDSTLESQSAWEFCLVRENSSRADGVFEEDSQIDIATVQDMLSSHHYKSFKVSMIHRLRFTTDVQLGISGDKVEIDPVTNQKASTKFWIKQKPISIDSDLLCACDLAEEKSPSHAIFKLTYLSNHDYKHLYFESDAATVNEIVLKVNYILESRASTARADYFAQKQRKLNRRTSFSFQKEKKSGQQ
row,Variant,effect of a mutation on the interaction
1,F133V,with no effect

# Variants of: B1
# Conditions: with mcl1_human MCL1, Q07820
row,Variant,effect of a mutation on the interaction
1,F133V,with no effect

# Variants of: B1
# Conditions: with mdm2_human MDM2, Q00987
row,Variant,effect of a mutation on the interaction
1,F133V,with no effect

# Variants of: B1
# Conditions: with mitf_human MITF
row,Variant,effect of a mutation on the interaction
1,F133V,with no effect

# Variants of: B1
# Conditions: with mlh1_human MLH1, P40692
row,Variant,effect of a mutation on the interaction
1,F133V,with no effect

# Variants of: B1
# Conditions: with mtor_human MTOR
row,Variant,effect of a mutation on the interaction
1,F133V,with no effect

# Variants of: B1
# Conditions: with myb_human MYB
row,Variant,effect of a mutation on the interaction
1,F133V,with no effect

# Variants of: B1
# Conditions: with mybb_human MYBL2, P10244
row,Variant,effect of a mutation on the interaction
1,F133V,with no effect

# Variants of: B1
# Conditions: with myc_human MYC
row,Variant,effect of a mutation on the interaction
1,F133V,with no effect
